Usually EC50 stands for the midpoint of the concentration-response curve.

The values below come from patent US20230067757A1 (NOVAROCK BIOTHERAPEUTICS, published 2023).

Sequences and labels used below:
B1: Hu-1 (antibody, V domains shown)
VH: QVQLVESGGGVVQPGRSLRLSCAASGFTFSNYGMYWVRQAPGKGLEWVAVIWYDGSNKNYADSVKGRFTISRDNSKNTLNLQMNSLRAEDTAVYYCARRGYDILTGYDYYGMDVWGQGTTVTVSA
VL: QTVVTQEPSFSVSPGGTVTLTCGLSSGSVSTSYYPSWYQQTPGQAPRTLIYRTNTRSSGVPDRFSGSILGNKAALTISGAQAPDESNYYCVLYMGSGIWVFGGGTKLTVL
B2: Hu-8 (antibody, V domains shown)
VH: QVQLVESGGGVVQPGRSLRLSCAASGFTFSSYGMHWVRQAPGKGLEWVAVIWYDGSNKKYADSVKGRFTISRDNSKNTLYLQMNSLRAEDTAVYYCARRYDVLTAYPYYFYYNMDVWGPGTTVTVSS
VL: B1 VL with S25N, R52S, S78T, P83D, N87D
B3: Hu-13 (antibody, V domains shown)
VH: EVQLLESGGGLVQPGGSLRVACAASGFPLRSYAMSWVRQAPGKGLEWVSVTSGSGGSTYYADSVKGRFTISRDNSKSTVYLQMNSLRAEDTAVYYCAKDRGYDILTGYYDYFYGMDVWGQGTTVTVSS
VL: DIQMTQSPSSLSASVGDRVTITCRASQGIRNDLGWFQQKPGKAPKRLIYAASSLQSGVPSRFSGSGSGTEFTLTISSLQPEDFATYYCLQHNSYPYTFGQGTKLEIK
B4: Hu-11 (antibody, V domains shown)
VH: QVHLVQSGAEVKKPGASVKVSCKASGYTFTSYYIHWVRQAPGQGLEWMGIINPSGGNTIYAQKFQGRVTMTRDTSTTTVYVELSSLRSEDTAVYYCARDHYDILTGYYPLYYGMDVWGQGTTVTVSS
VL: SYELTQPLSVSVALGQTARITCGGNNIGSKNVHWYQQKPGQAPVLVIYRDSNRPSGIPERFSGSKSGNTATLTISRAQAGDEADYYCQVWDSSTAVFGGGTQLTAL
B5: Ms19 (antibody, V domains shown)
VH: EVQLQQSGPELVKPGASVKMSCKASGYTFTSYVIHWVKQKPGQGLEWIGYINPYNDGSKYNEKFKGKATLTSDKSSSTAYMELSSLTSEDSAVYYCAREGYGKRNALDYWGQGTSVTVSS
VL: DIVMTQSPSSLSVSAGERVTMSCKSSQSLLNSGNQKNYLAWYQQKPGQPPKLLIYGASTRESGVPDRFTGSGSGTDFTLIISSVQVEDLAVYYCQNDHFYPLTFGAGTKLELK
B6: Ms13 (antibody, V domains shown)
VH: EVQLQQSGPELVKPGASVKMSCKASGYTFTRYIMHWVKQKPGQGLEWIGYFNPYNDDSKTSEKFKGKATLTSDKSSSTAYMEINSLTSEDSAVYYCAKLRQERIAYWGQGTLVTVSA
VL: DIQMNQSPSSLSASLGDTITITCHASQNIDVWLSWYQQKPGNFPKLLIYKASNLHTGVPSRFSGSGSGTGFTLTISSLQPEDIATYYCQQGQSYPLTFGAGTKLELK
B7: Ms15 (antibody, V domains shown)
VH: EVQLQQSGPELVRPGASVKMSCRASGYTFTNYIIHWVKQKPGQGLEWIGYFNPYNDGTKYNEIFKDKATLTSDKSSSTAYMELRSLTSEDSAVYYCAKLRQERIAYWGQGTLVTVSA
VL: B6 VL with A25V, F43I
B8: Ms17 (antibody, V domains shown)
VH: B6 VH with R31N, M34I, D57G, S58I, K59E, T60Y, I83L, N84S, A97S, I104F
VL: B6 VL with D30N, F43I
B9: Ms18 (antibody, V domains shown)
VH: QVQLKESGPGLVAPSQSLSITCTVSGFSLISYGVHWVRQPPGKGLEWLGVIWAGGNTNYNSALMSRLSISKDNSKSQVFLKMNSLQTDDTAMYYCARVYYGNSFDYWGQGTTLTVSS
VL: DIVMTQSPSSLTVTAGEKVTMSCKSSQSLLNSGNQKNYLTWYQQKPGQPPKLLIYWASTRQSGVPDRFTGSGSGTDFSLTISSVQAEDLAVYYCHNDYTYPLTFGAGTKLELK
B10: Ms20 (antibody, V domains shown)
VH: EIQLQQSGPELMKPGASVKISCKASGYSFTSYYMHWVKQSHGKSLEWIGYFDPYNGGTNYNQKFKGKATLTADKSSSTAYMHLSSLTSEDSAVYYCACYRFFAVWGAGTTVTVSS
VL: B9 VL with Q61E, S78T, H95Q, T99S
B11: Ms21 (antibody, V domains shown)
VH: DVQLVESGGGLVQPGGSRKLSCAASGFTFSTFGMHWVRQAPEKGLEWVAFINGDSSSIYYADTVKGRFTISRDNPKNILFLQMTSLRSEDTAMYYCARFARGNSFDYWGQGTTLTVSS
VL: B9 VL with L30F, G47W, Q61E, S78T, S82T, A86T, H95Q, N96I, D97G
B12: Ms22 (antibody, V domains shown)
VH: QVQLKESGPGLVAPSQSLSITCTVSGFSLTSNGVHWVRQPPGKGLEWLGVIWAGGSTNYNSALMSRLSISKDNSKSQVFLKMNSLQTHDTAMYYCARDKYDGTGFDYWGQGTTLTVSS
VL: QIVLTQSPAIMSASPGEKVTMTCSASSSVSNMYWYQQKPGSSPRLLIYDTSNLASGVPVRFSGSGSGTSYSLTISRMEAEDAATYYCQQWSSYPYTFGGGTKLEIK

Numbering of substitutions follows the chain as printed.

T1 sequence (P56856 whole entry, canonical isoform): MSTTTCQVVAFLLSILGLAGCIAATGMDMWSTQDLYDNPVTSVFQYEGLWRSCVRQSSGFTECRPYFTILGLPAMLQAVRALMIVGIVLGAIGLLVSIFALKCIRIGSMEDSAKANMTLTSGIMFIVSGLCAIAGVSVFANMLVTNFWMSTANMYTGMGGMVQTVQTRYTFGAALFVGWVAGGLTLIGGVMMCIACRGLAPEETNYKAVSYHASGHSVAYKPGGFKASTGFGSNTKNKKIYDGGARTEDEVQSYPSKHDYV

For one assay, the target named is human claudin 18 isoform 2 (claudin 18.2) (human). The assay is described as follows: cell-based or functional assay.
Turning to B1, the “ADCC EC50, CHO-18.2 target cells (mouse FcγRIV reporter bioluminescence)” value (shortened to “ADCC EC50, CHO-18.2 target cells”) is 0.77 nM.

Consider B2, for which the “ADCC EC50, CHO-18.2 target cells” value was 1.42 nM.

B3: the “ADCC EC50, CHO-18.2 target cells” value was determined as 1.17 nM.

Regarding B4, the “ADCC EC50, CHO-18.2 target cells” value turned out to be 1.51 nM.

The next assay shares this target. The assay is described as follows: cell-based or functional assay. This is another data set of the same source.
In the case of B5, the “endocytosis derived cell toxicity EC50, CHO-18.2 cells (anti-IgG Fc-MMAF co-internalization)” value (“endocytosis derived cell toxicity EC50” for short) stood at 1.36 nM.

Turning to B6, the “endocytosis derived cell toxicity EC50” value is 0.71 nM.

On to B7, for which the “endocytosis derived cell toxicity EC50” value was determined as 1.15 nM.

As for B8, the “endocytosis derived cell toxicity EC50” value came to 0.81 nM.

For B9, the “endocytosis derived cell toxicity EC50” value turned out to be 1.39 nM.

With B10, the “endocytosis derived cell toxicity EC50” value was found to be 1.07 nM.

In the case of B11, the “endocytosis derived cell toxicity EC50” value came out at 0.95 nM.

With B12, the “endocytosis derived cell toxicity EC50” value came to 1.61 nM.

The target is the same in another assay. The assay is described as follows: cell-based or functional assay. This is another data set of the same source.
For B1, the “endocytosis derived cell toxicity EC50” value is 1.61 nM.

With B2, the “endocytosis derived cell toxicity EC50” value came to 1 nM.

Regarding B3, the “endocytosis derived cell toxicity EC50” value is 2.16 nM.

In the case of B4, the “endocytosis derived cell toxicity EC50” value was found to be 1.31 nM.

Another assay has as its target T1, human claudin 18 isoform 1 (claudin 18.1) (human, UniProt P56856 1-261).
T1 construct: Recombinant on transfected CHO cells (CHO-CLDN18.1); also called CLDN18.1
The assay is described as follows: imaging, CHO-CLDN18.1 cells, single concentration (FIG. 3A). How it is done: (§1) The specific cellular binding affinity of anti-Claudin18.2 antibodies was tested on CHO-CLDN18.2 (transfected CHO cell expressing recombinant human CLDN18.2) and CHO-CLDN18.1 (transfected CHO cell expressing recombinant human CLDN18.1) cells. The cells were plated in complete media containing F12 with 10% FBS, then incubated overnight at 37° C., anti-Claudin18.2 antibodies were serial diluted and added to the assay plates, incubated at 4° C. for 2 hours, followed by fixing cells and further staining the cells for 30 minutes with Alexa Fluor® 488 Goat Anti-Human IgG (H+L) secondary antibody, invitrogen Cat #A-11013 for detection. The binding was assessed by imaging the cells and quantifying the fluorescence intensity using a Biotek Cytation.
Turning to B5, the binding result is listed as “no binding (tested: 10 µg/ml)”.

Regarding B6, the binding result is on record as “no binding (tested: 10 µg/ml)”.

For B7, the binding result is recorded as “no binding (tested: 10 µg/ml)”.

Turning to B8, the binding result is listed as “no binding (tested: 10 µg/ml)”.

B9: the binding result is reported as “no binding (tested: 10 µg/ml)”.

Take B10: the binding result is “no binding (tested: 10 µg/ml)”.

On to B11, for which the binding result is on record as “no binding (tested: 10 µg/ml)”.

Consider B12, for which the binding result is recorded as “no binding (tested: 10 µg/ml)”.

The target in the next assay is T2, human claudin 18 isoform 2 (claudin 18.2) (human).
T2 construct: Recombinant on transfected CHO cells (CHO-CLDN18.2) or endogenous on tumor cell lines PATU8988S, NUGC-4, KATOIII; the cell line is named under assay; also called CLDN18.2
The assay is described as follows: immunofluorescence imaging, CHO-CLDN18.2 cells, serial dilution. How it is done: as §1
In turn, B1 yielded an EC50 of 3.6 nM.

The molecule B2 returned an EC50 of 3.7 nM.

B3 displayed a concentration for a half-maximal effect (EC50) of 5.6 nM.

On to B5, for which the EC50 was 2.3 nM.

B6 yielded an EC50 of 1.2 nM.

B7: the EC50 was 1.8 nM.

The molecule B8 returned an EC50 of 1.4 nM.

The molecule B9 came in with an EC50 of 1.3 nM.

Turning to B10, it took 1.3 nM to reach a half-maximal effect (EC50).

B11: the EC50 was 1.5 nM.

B4 displayed an EC50 of 17 nM.

Molecule B12 returned an EC50 of 2.6 nM.

The target of the next assay is T2, human claudin 18 isoform 2 (claudin …). The assay is described as follows: imaging, PATU8988S cells (endogenous CLDN18.2); +++ = EC50 between 2 nM and 20 nM.
Turning to B5, the EC50 is 2 to 20 nM.

B6 returned a concentration giving a half-maximal response (EC50) of 2 to 20 nM.

With B7, the EC50 lay within 2 to 20 nM.

Molecule B8 yielded an EC50 of 2 to 20 nM.

Take B9: the EC50 fell in the range of 2 to 20 nM.

Molecule B10 yielded an EC50 of 2 to 20 nM.

Consider B11, for which the 50% effective concentration (EC50) lay in the range of 2 to 20 nM.

In turn, B12 yielded an EC50 of 2 to 20 nM.

The target is the same in the next assay. The assay is described as follows: imaging, PATU8988S cells (endogenous CLDN18.2); ++ = EC50 between 20 nM and 100 nM. How it is done: Tumor cells were plated in complete media containing RPMI1640 with +10% FBS, then incubated overnight at 37° C., Claudin18.2 antibodies were serial diluted and added to the assay plates, incubated at 4° C. for 2 hours, followed by fixing cells and further staining the cells for 30 minutes with Alexa Fluor® 488 Goat Anti-Human IgG (H+L) secondary antibody (invitrogen Cat #A-11013) for detection. The binding was assessed by imaging the cells and quantifying the fluorescence intensity using a Biotek Cytation.
The molecule B1 registered an EC50 of 20 to 100 nM.

As for B2, the EC50 lay in the range of 20 to 100 nM.

In turn, B3 registered a 50% effective concentration (EC50) of 20 to 100 nM.

In the case of B4, the EC50 was in the range of 20 to 100 nM.

The target in a further assay is T1, human claudin 18 isoform 1 (claudin …). The assay is described as follows: immunofluorescence imaging on CHO cells expressing human CLDN18.1, antibody at 10 µg/ml. How it is done:
as §1
As for B1, the binding result is listed as “no binding (tested: 10 µg/ml)”.
